Measured values: US20240174712A1, “COMPOSITIONS AND METHODS FOR PURIFYING ALPHA-1 ANTITRYPSIN USING PEPTIDE LIGANDS” (North Carolina State University, priority 2022, published 2024)
One block for each molecule: values may come before it. No end group written: not given here.

Assays:
human AAT = biological target: T1, human AAT (Homo sapiens, UniProt P01009); experiment: Static binding capacity and affinity of peptide-Toyopearl resins (AAT adsorption isotherms, Langmuir fit); conditions: pure AAT in PBS at pH 7.4; Langmuir isotherm fit
T1 construct: purchased CSL Behring (King of Prussia, PA, USA)
Method: Static binding capacity and affinity of peptide-Toyopearl resins. […] Aliquots of 50 μL of peptide-Toyopearl resin were transferred in a tube, swollen in 20% v/v aqueous methanol, washed in MilliQ water, and finally equilibrated in PBS at pH 7.4. The resin aliquots were individually incubated with 0.5 mL of a solution of AAT at different concentrations (0.1, 0.25, 0.5, 0.75, 1.0, 1.5, 2.0, and 5.0 mg/mL) for 1.5 hrs at room temperature under gentle rotation. After incubation, the resin aliquots were centrifuged and the supernatants collected as unbound (UB) fraction; the resins were also washed with 0.5 mL of PBS for 30 min, and the supernatants were combined with the corresponding UB fractions. These were finally analyzed by Micro BCA Protein Assay kit to determine the concentration C* of unbound AAT in solution at the equilibrium with the resin, from which the amount q of bound AAT per volume of resin was determined by mass balance. The values of q vs. C* were plotted and fit using a Langmuir isotherm (Equation 1) to determine the values of maximum binding capacity (Qmax) and affinity dissociation constant (KD)).
Evaluation of AAT-binding peptides via in vitro and in silico AAT binding studies. […] Toyopearl resin was selected for ligand conjunction owing to its high chemical and mechanical stability as well as low non-specific protein adsorption, which make it an ideal substrate for direct peptide conjugation and protein chromatography.

[1] = biological target: T2, Human Alpha-1 antitrypsin (AAT) (human, UniProt P01009 25-418); experiment: static adsorption isotherm, pure AAT in PBS pH 7.4, Langmuir fit
T2 construct: Pure AAT in buffer, as used in the isotherm and breakthrough studies; also called α-1 antitrypsin; human AAT
Method: Static binding capacity and affinity of peptide-Toyopearl resins. The selected sequences were synthesized on Toyopearl AF-Amino 650 M resin as described herein and evaluated via isotherm binding studies of AAT in non-competitive mode (e.g., pure AAT in PBS at pH 7.4) as described in prior work. Aliquots of 50 μL of peptide-Toyopearl resin were transferred in a tube, swollen in 20% v/v aqueous methanol, washed in MilliQ water, and finally equilibrated in PBS at pH 7.4. The resin aliquots were individually incubated with 0.5 mL of a solution of AAT at different concentrations (0.1, 0.25, 0.5, 0.75, 1.0, 1.5, 2.0, and 5.0 mg/mL) for 1.5 hrs at room temperature under gentle rotation. After incubation, the resin aliquots were centrifuged and the supernatants collected as unbound (UB) fraction; the resins were also washed with 0.5 mL of PBS for 30 min, and the supernatants were combined with the corresponding UB fractions. These were finally analyzed by Micro BCA Protein Assay kit to determine the concentration C* of unbound AAT in solution at the equilibrium with the resin, from which the amount q of bound AAT per volume of resin was determined by mass balance. The values of q vs. C* were plotted and fit using a Langmuir isotherm (Equation 1) to determine the values of maximum binding capacity (Qₘₐₓ) and affinity dissociation constant (KD)).

[2] = biological target: T2, Human Alpha-1 antitrypsin (AAT); experiment: dynamic binding capacity at 10% breakthrough, PBS pH 7.4, residence time 5 min
Method: (§1) Dynamic binding capacity of peptide Toyopearl resins. The dynamic binding capacity at 10% breakthrough (DBC_{10%}, mg of AAT per mL resin) of the selected peptide-Toyopearl resins and the control AAT Select resin was measured. A volume of 0.1 mL of resin was wet packed in a Vici Jour PEEK column, washed with 10 column volumes (CVs) of 20% v/v ethanol, deionized water (3 CVs), and finally equilibrated with 10 CVs of binding buffer. The binding buffers used in this study were (i) 0.15M NaCl in 20 mM Bis-Tris HCl buffer at pH 6.0, (ii) PBS buffer at pH 7.4, and (iii and iv) 0.15M NaCl in 50 mM Tris HCl buffer at pH 7.4 or pH 8.0. A volume of 2 mL of solution of human AAT at 1 mg/mL in PBS buffer was continuously loaded on the column at the flow rate of either 0.05 mL/min (residence time, RT: 2 min) or 0.02 mL/min (RT: 5 min). After loading, the resin was washed with 10 CVs of binding buffer at the flow rate of 0.1 mL/min. AAT elution was then performed with 20 CVs of PBS in 2 M MgCl₂ at pH 7.4 at the flow rate of 0.2 mL/min. The resin was regenerated with 10 CVs of glycine buffer at pH 2.0 at the flow rate of 0.2 mL/min. The effluents were continuously monitored by UV spectrometry at 280 nm and the resulting chromatograms were utilized to calculate the DBC_{10%} of AAT.
(§2) Evaluation of AAT-binding peptides via dynamic binding measurements. Following the equilibrium binding studies, the selected peptide-Toyopearl resins were evaluated under dynamic conditions to evaluate the interplay of kinetic factors—chiefly, the AAT transport within the chromatographic particles and the formation of AAT:peptide complexes—on the resultant binding capacity. To that end, the dynamic binding capacity at 10% breakthrough (DBC_{10%}, mg of AAT per mL of resin) of the peptide-Toyopearl resins was measured at two values of residence time (RT), namely 2 and 5 min, and four different buffer compositions, namely 20 mM Bis-Tris HCl buffer (0.15M NaCl) at pH 6.0, PBS buffer at pH 7.4, and 50 mM Tris HCl buffer (0.15M NaCl) at pH 7.4 and 8.0, and compared with that of AAT Select from Cytiva (FIG. 4; the corresponding breakthrough curves are reported in FIG. 9).

[3] = biological target: T2, Human Alpha-1 antitrypsin (AAT); experiment: dynamic binding capacity at 10% breakthrough, PBS pH 7.4, residence time 2 min
Method: as §1, §2

[4] = biological target: T2, Human Alpha-1 antitrypsin (AAT); experiment: dynamic binding capacity at 10% breakthrough, Tris buffer pH 7.4, residence time 2 or 5 min

T2 sequence (P01009 25-418 limits assumed): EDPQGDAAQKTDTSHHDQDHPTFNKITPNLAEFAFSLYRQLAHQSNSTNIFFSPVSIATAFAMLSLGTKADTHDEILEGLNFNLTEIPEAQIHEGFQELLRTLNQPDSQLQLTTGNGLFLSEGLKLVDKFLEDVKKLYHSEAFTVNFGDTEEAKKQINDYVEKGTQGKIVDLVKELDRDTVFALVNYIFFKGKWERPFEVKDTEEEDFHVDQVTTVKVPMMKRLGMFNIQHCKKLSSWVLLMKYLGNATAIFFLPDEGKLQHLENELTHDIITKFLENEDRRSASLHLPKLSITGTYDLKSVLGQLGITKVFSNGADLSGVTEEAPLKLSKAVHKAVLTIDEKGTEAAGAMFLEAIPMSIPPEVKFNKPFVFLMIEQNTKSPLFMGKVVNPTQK
T1 sequence (P01009 25-418): as the sequence (P01009 25-418 limits assumed) above

Qmax (mgAAT per mLR) (human AAT): 6.3 mgAAT per mLR
Molecule: NHNKIHG-Toyopearl: peptide ligand NHNKIHG conjugated on Toyopearl AF-Amino-650M resin (NHNKIHG-{Toyopearl AF‑Amino‑650M resin})

Qmax (mgAAT per mLR) (human AAT): 7.2 mgAAT per mLR
Molecule: KHAWIFG-Toyopearl: peptide ligand KHAWIFG conjugated on Toyopearl AF-Amino-650M resin (KHAWIFG-{Toyopearl AF‑Amino‑650M resin})

Kd [1]: 0.51 µM
Qmax (mgAAT per mLR) [1]: 13.5
DBC10% [2]: 12.8 mg/mL
DBC10% [3]: 12.3 mg/mL
DBC10% [4]: 12 mg/mL
Molecule: Alpha-1 Antitrypsin Select resin

Qmax (mgAAT per mLR) (human AAT): 8.9 mgAAT per mLR
Molecule: KFHAWNG-Toyopearl: peptide ligand KFHAWNG conjugated on Toyopearl AF-Amino-650M resin (KFHAWNG-{Toyopearl AF‑Amino‑650M resin})

Qmax (mgAAT per mLR) (human AAT): 7.0 mgAAT per mLR
Molecule: SHWHWAG-Toyopearl: peptide ligand SHWHWAG conjugated on Toyopearl AF-Amino-650M resin (SHWHWAG-{Toyopearl AF‑Amino‑650M resin})

Kd [1]: 1.42 µM
Qmax [1]: 7.2 mgAAT per mLR
B1: KHAWIFG-Toyopearl (peptide)
peptide: KHAWIFG-{Toyopearl AF‑Amino‑650M resin}
modifications: not fully specified; printed as KHAWIFG-Toyopearl

Kd [1]: 2.09 µM
Qmax [1]: 12.9 mgAAT per mLR
DBC10% [2]: 12.7 mg/mL
DBC10% [3]: 10.3 mg/mL
B2: WHAKKSKFG-Toyopearl (peptide)
peptide: WHAKKSKFG-{Toyopearl AF‑Amino‑650M resin}
modifications: not fully specified; printed as WHAKKSKFG-Toyopearl

Kd [1]: 0.95 µM
Qmax [1]: 16.3 mgAAT per mLR
DBC10% [2]: 12.5 mg/mL
DBC10% [3]: 9.3 mg/mL
B3: WHAKKSHFG-Toyopearl (peptide)
peptide: WHAKKSHFG-{Toyopearl AF‑Amino‑650M resin}
modifications: not fully specified; printed as WHAKKSHFG-Toyopearl

Kd [1]: 4.71 µM
Qmax [1]: 8.7 mgAAT per mLR
B4: AAHFHKG-Toyopearl (peptide)
peptide: AAHFHKG-{Toyopearl AF‑Amino‑650M resin}
modifications: not fully specified; printed as AAHFHKG-Toyopearl

Kd [1]: 2.32 µM
Qmax [1]: 6.3 mgAAT per mLR
B5: NHNKIHG-Toyopearl (peptide)
peptide: NHNKIHG-{Toyopearl AF‑Amino‑650M resin}

Kd [1]: 0.87 µM
Qmax [1]: 10.2 mgAAT per mLR
B6: KAWFKHWNG-Toyopearl (peptide)
peptide: KAWFKHWNG-{Toyopearl AF‑Amino‑650M resin}
modifications: not fully specified; printed as KAWFKHWNG-Toyopearl

Kd [1]: 3.63 µM
Qmax [1]: 9.4 mgAAT per mLR
B7: FSHHSWKFG-Toyopearl (peptide)
peptide: FSHHSWKFG-{Toyopearl AF‑Amino‑650M resin}
modifications: not fully specified; printed as FSHHSWKFG-Toyopearl

Kd [1]: 3.28 µM
Qmax [1]: 7 mgAAT per mLR
B8: SHWHWAG-Toyopearl (peptide)
peptide: SHWHWAG-{Toyopearl AF‑Amino‑650M resin}
modifications: not fully specified; printed as SHWHWAG-Toyopearl

Kd [1]: 3.62 µM
Qmax [1]: 9.1 mgAAT per mLR
B9: KHSKAIAAG-Toyopearl (peptide)
peptide: KHSKAIAAG-{Toyopearl AF‑Amino‑650M resin}
modifications: not fully specified; printed as KHSKAIAAG-Toyopearl

Kd [1]: 0.63 µM
Qmax [1]: 15.8 mgAAT per mLR
DBC10% [2]: 11.6 mg/mL
DBC10% [3]: 8.9 mg/mL
B10: KWKHSHKWG-Toyopearl (peptide)
peptide: KWKHSHKWG-{Toyopearl AF‑Amino‑650M resin}
modifications: not fully specified; printed as KWKHSHKWG-Toyopearl

Kd [1]: 2.48 µM
Qmax [1]: 8.9 mgAAT per mLR
B11: KFHAWNG-Toyopearl (peptide)
peptide: KFHAWNG-{Toyopearl AF‑Amino‑650M resin}
modifications: not fully specified; printed as KFHAWNG-Toyopearl

Kd [1]: 6.7 µM
Qmax [1]: 3.51 mgAAT per mLR
B12: ANAKIKKKG-Toyopearl (peptide)
peptide: ANAKIKKKG-{Toyopearl AF‑Amino‑650M resin}
modifications: not fully specified; printed as ANAKIKKKG-Toyopearl

Kd [1]: 4.67 µM
Qmax [1]: 5.1 mgAAT per mLR
B13: FEKWAKAHG-Toyopearl (peptide)
peptide: FEKWAKAHG-{Toyopearl AF‑Amino‑650M resin}
modifications: not fully specified; printed as FEKWAKAHG-Toyopearl
